A word on the Cmax: it is the maximum level reached in the sampled fluid or tissue.

Starred links: 1 amine or outer side, 2 acyl side, 3 side chain; linkers in the order of their positions; H or OH if unused. Non-standard residues stand in square brackets, D forms with d. Groups on a side chain read outwards from the residue. No end group written: not given here. *: point of attachment. γGlu = O=C(O)[C@H](CCC(=O)[*:2])N[*:1]; Palmitoyl = CCCCCCCCCCCCCCCC(=O)*; Aib = CC(C)(N)C(=O)O

The nature of data set [1]: Pharmacokinetics in female Göttingen minipigs. In kind it is in vivo. The following applies: for half-life in plasma: after subcutaneous administration. Here is the method: 6 female Göttingen minipigs of average 30000 g weight were used in this study.
Animals had access to food and water ad libitum throughout the entire study period. The animals were dosed with 0.23 mg/kg of a 17.6% suspension of HA-Aib-linker-Seq ID. No.7. Plasma samples were taken at 0, 1, 4, 8, 24, 48, 72, 96, 144, 192, 264, 312, 360, 432, 480 and 528 h. Samples were analysed for the peptide. All quantitative results were determined by LC-MS/MS. For calculation of mean concentrations, values below the lower limit of quantification (LLOQ=0.5 ng/mL in plasma) were set to zero. The pharmacokinetic parameters were calculated by the program WinNonlin 6.4 using a non-compartmental model and linear trapezoidal interpolation calculation.

Data set [2] in a line: Pharmacokinetics in female SD rats. The class given is in vivo, Sprague-Dawley rats. Here is the method: 5 female Sprague-Dawley rats were used in this study. Animals had access to food and water ad libitum throughout the entire study period. The animals were dosed with 1.01 mg/kg (peptide content) of a suspension of the conjugate of Seq ID. No.7. Plasma samples were taken at 4, 24, 48, 72, 144, 192, 240 and 336 h. Samples were analysed for the peptide. All quantitative results were determined by LC-MS/MS. For calculation of mean concentrations, values below the lower limit of quantification (LLOQ=2.5 ng/mL in plasma) were set to zero. The pharmacokinetic parameters were calculated by the program WinNonlin 6.4 using a non-compartmental model and linear trapezoidal interpolation calculation.

Data set [3] in a line: Injectability study (load on pre-filled syringe). In kind it is physicochemical. The following applies: 20 mg/mL suspension, 13.5% peptide load, 1 mL BD Neopak PFS, needle 27G×½″ TW, 3.2 mm/s. The method, then:
A suspension of HA-peptide conjugate with Seq. ID No. 7 (20 mg/mL in 20 mM acetate buffer, 7.6 mg/mL NaCl, 4 mg/mL soluble (non crosslinked) hyaluronic acid 700 kD, pH 4.8) was manually filled into 1 mL long BD Neopak glass pre-filled syringes (PFS), 600 μL each, and afterwards closed via vacuum stoppering. The filled PFS were loaded into the syringe holder of the equipment and the injection speed was adjusted to […] which equals 3.2 mm/s for the BD Neopak PFS.

The test system of data set [4] is female diet-induced obese (DIO) C57BL/6N mice. Kind of data set: Body mass after subcutaneous treatment in female diet-induced obese mice. The class given is in vivo, mouse. The following applies: for mean body weight reduction by day 23 versus the body weight at day 0: days 1, 8, 15, 22, female DIO mice. Here is the method: Female C57BL/6N Cr1 mice were used for this study.
Mice were group housed under vivarium conditions that included a 12 h light/dark cycle, room temperatures—of 23±1° C. and a relative humidity between 30-70%. All animals had free access to water and diet (Ssniff adjusted high fat diet: TD.97366) for 18 weeks prior to pharmacological intervention (dosing phase). After pre-feeding period, mice were stratified for body weight to treatment groups with n=8, so that each group has similar mean body weight. At the study start mice were between 25-26 weeks old.
Mice were treated in the morning on days 1, 8, 15 and 22 between 8:00 and 9:00 AM with a s.c. injection of cross-linked hyaluronic acid (“vehicle”) or 100 and 200 nmol/kg/week conjugate (based on peptide content) of SEQ ID NO: 7 using a 30 G needle.
Body weight and food consumption were measured daily throughout the dosing phase. The study was terminated on day 23.
For statistical analyses a One-Way Analysis of Variance (ANOVA) was performed with SigmaStat 3.5. The power of the performed test was alpha=0.050:0.999 and a comparison versus the high fat diet-Vehicle group was performed with Dunnett's Method.

The target in a further data set is human GLP-1 receptor (human, UniProt P43220 24-463). Kind of data set: cell-based or functional assay.
In another data set the target is human glucagon receptor (human, UniProt P47871 26-477). Kind of data set: cell-based or functional assay.
Chain of human glucagon receptor (P47871 26-477): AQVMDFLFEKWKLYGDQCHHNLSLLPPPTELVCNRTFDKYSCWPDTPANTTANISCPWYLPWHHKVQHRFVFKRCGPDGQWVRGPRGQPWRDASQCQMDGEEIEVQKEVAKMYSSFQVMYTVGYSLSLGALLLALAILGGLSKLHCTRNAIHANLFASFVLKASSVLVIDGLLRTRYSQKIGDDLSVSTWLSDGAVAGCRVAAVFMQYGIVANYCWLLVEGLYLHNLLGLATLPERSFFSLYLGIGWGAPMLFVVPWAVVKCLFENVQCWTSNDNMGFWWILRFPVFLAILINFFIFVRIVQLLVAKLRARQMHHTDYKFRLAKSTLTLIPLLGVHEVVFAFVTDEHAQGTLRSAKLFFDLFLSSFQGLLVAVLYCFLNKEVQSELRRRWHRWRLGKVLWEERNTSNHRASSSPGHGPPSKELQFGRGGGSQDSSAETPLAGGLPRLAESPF
The target in another data set is T1, human GIP receptor (human, UniProt P48546 22-466).
T1 sequence (looked up): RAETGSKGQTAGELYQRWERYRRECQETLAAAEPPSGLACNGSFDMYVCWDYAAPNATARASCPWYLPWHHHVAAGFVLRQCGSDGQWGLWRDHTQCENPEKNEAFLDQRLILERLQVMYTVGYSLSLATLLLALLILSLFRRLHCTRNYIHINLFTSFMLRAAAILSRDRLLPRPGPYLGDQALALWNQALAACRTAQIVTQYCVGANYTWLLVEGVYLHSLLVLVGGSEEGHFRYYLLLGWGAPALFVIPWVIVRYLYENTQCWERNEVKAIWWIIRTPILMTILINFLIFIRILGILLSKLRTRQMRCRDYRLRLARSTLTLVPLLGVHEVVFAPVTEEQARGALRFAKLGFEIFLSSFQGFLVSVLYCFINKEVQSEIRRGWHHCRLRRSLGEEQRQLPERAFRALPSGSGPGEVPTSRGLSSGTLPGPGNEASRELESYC
The data set can be described thus: cell-based or functional assay.

Setting [5] is: peptide Seq. NO: 7 in plasma, single s.c. 0.23 mg/kg of 17.6% conjugate (0.04 mg/kg peptide).
The mark [6] stands for this setting: peptide Seq. No. 7 in plasma, single s.c. 1.01 mg/kg (peptide content) conjugate suspension.

In the case of “conjugate of SEQ ID NO: 7: Divinylsulfone-crosslinked hyaluronic acid hydrogel carrying peptide Seq. ID No. 7 via Aib-linker (thiol-maleimide conjugation) (H[Aib]HGTFTSDLSKLK([γGlu-γGlu-Palmitoyl])EEQRQ[Aib]EFIEWLKA[dA]GPPS[Aib]KPPPK-NH2; also: conjugated to divinylsulfone-crosslinked hyaluronic acid hydrogel via Aib-linker (thiol-maleimide), site not given here)”, the half-life in plasma result is “around 139 h” in data set [1]; 139 h in data set [1] (same value as in h); “around 3 days” in data set [2] (after subcutaneous administration, 1.01 mg/kg (peptide content)). The AUClast worked out at 897 ng·h/mL in data set [1] (setting [5]) and 1810 ng·h/mL in data set [2] (setting [6]). The figures for the Cmax in data set [1] (setting [5]) and in data set [2] (setting [6]) were 4.96 ng/mL and 14.0 ng/mL, respectively. Further, the figures for the tlast in data set [1] (setting [5]) and in data set [2] (setting [6]) were 344 h and 221 h, respectively. The tmax is 100 h in data set [1] (setting [5]) and 48.0 h in data set [2] (setting [6]). The same molecule registered an average load in data set [3] of 6.5 N. The maximum load in data set [3] is listed as 7.6 N. In addition, the “mean body weight reduction by day 23 versus the body weight at day 0” value in data set [4] (100 nmol/kg/w s.c. (based on peptide content)) is listed as around 17.7±1.3%; in data set [4] (200 nmol/kg/w s.c. (based on peptide content)), around 19.5±1.4%. For the same molecule, the “body weight effect of the first administration” value in data set [4] (both doses (100 and 200 nmol/kg/week s.c.), p<0.05 vs high-fat diet vehicle) was “significant body weight-reducing effect that lasted until day 8”.

B1: Peptide of SEQ ID NO: 6 (GLP-1/Glucagon/GIP triple receptor agonist, exendin-4 derivative) (peptide)
peptide: H[Aib]HGTFTSDLSKLK([γGlu-γGlu-Palmitoyl])EEQRQKEFIEWLKAGGHPS[Aib]KPPPK-NH2
modifications: N-terminus assumed
SMILES: CCCCCCCCCCCCCCCC(=O)N[C@@H](CCC(=O)N[C@@H](CCC(=O)NCCCC[C@H](NC(=O)[C@H](CC(C)C)NC(=O)[C@H](CCCCN)NC(=O)[C@H](CO)NC(=O)[C@H](CC(C)C)NC(=O)[C@H](CC(=O)O)NC(=O)[C@H](CO)NC(=O)[C@@H](NC(=O)[C@H](Cc1ccccc1)NC(=O)[C@@H](NC(=O)CNC(=O)[C@H](Cc1c[nH]cn1)NC(=O)C(C)(C)NC(=O)[C@@H](N)Cc1c[nH]cn1)[C@@H](C)O)[C@@H](C)O)C(=O)N[C@@H](CCC(=O)O)C(=O)N[C@@H](CCC(=O)O)C(=O)N[C@@H](CCC(N)=O)C(=O)N[C@@H](CCCNC(=N)N)C(=O)N[C@@H](CCC(N)=O)C(=O)N[C@@H](CCCCN)C(=O)N[C@@H](CCC(=O)O)C(=O)N[C@@H](Cc1ccccc1)C(=O)N[C@H](C(=O)N[C@@H](CCC(=O)O)C(=O)N[C@@H](Cc1c[nH]c2ccccc12)C(=O)N[C@@H](CC(C)C)C(=O)N[C@@H](CCCCN)C(=O)N[C@@H](C)C(=O)NCC(=O)NCC(=O)N[C@@H](Cc1c[nH]cn1)C(=O)N1CCC[C@H]1C(=O)N[C@@H](CO)C(=O)NC(C)(C)C(=O)N[C@@H](CCCCN)C(=O)N1CCC[C@H]1C(=O)N1CCC[C@H]1C(=O)N1CCC[C@H]1C(=O)N[C@@H](CCCCN)C(N)=O)[C@@H](C)CC)C(=O)O)C(=O)O
For the molecule B1, the “EC50 hGLP-1R (cAMP response, HTRF, HEK-293 cells)” value in the data set with human GLP-1 receptor came out at 1.4 pM. Moreover, the “EC50 hGlucagon R (cAMP response, HTRF, HEK-293 cells)” value in the data set with human glucagon receptor was determined as 2.3 pM. For the same molecule, the “EC50 hGlP R (cAMP response, HTRF, HEK-293 cells)” value in the data set with human GIP receptor was determined as 2.1 pM.

B2: Peptide of SEQ ID NO: 7 (GLP-1/Glucagon/GIP triple receptor agonist, exendin-4 derivative) (peptide)
peptide: H[Aib]HGTFTSDLSKLK([γGlu-γGlu-Palmitoyl])EEQRQ[Aib]EFIEWLKA[dA]GPPS[Aib]KPPPK-NH2
modifications: N-terminus assumed
SMILES: CCCCCCCCCCCCCCCC(=O)N[C@@H](CCC(=O)N[C@@H](CCC(=O)NCCCC[C@H](NC(=O)[C@H](CC(C)C)NC(=O)[C@H](CCCCN)NC(=O)[C@H](CO)NC(=O)[C@H](CC(C)C)NC(=O)[C@H](CC(=O)O)NC(=O)[C@H](CO)NC(=O)[C@@H](NC(=O)[C@H](Cc1ccccc1)NC(=O)[C@@H](NC(=O)CNC(=O)[C@H](Cc1c[nH]cn1)NC(=O)C(C)(C)NC(=O)[C@@H](N)Cc1c[nH]cn1)[C@@H](C)O)[C@@H](C)O)C(=O)N[C@@H](CCC(=O)O)C(=O)N[C@@H](CCC(=O)O)C(=O)N[C@@H](CCC(N)=O)C(=O)N[C@@H](CCCNC(=N)N)C(=O)N[C@@H](CCC(N)=O)C(=O)NC(C)(C)C(=O)N[C@@H](CCC(=O)O)C(=O)N[C@@H](Cc1ccccc1)C(=O)N[C@H](C(=O)N[C@@H](CCC(=O)O)C(=O)N[C@@H](Cc1c[nH]c2ccccc12)C(=O)N[C@@H](CC(C)C)C(=O)N[C@@H](CCCCN)C(=O)N[C@@H](C)C(=O)N[C@H](C)C(=O)NCC(=O)N1CCC[C@H]1C(=O)N1CCC[C@H]1C(=O)N[C@@H](CO)C(=O)NC(C)(C)C(=O)N[C@@H](CCCCN)C(=O)N1CCC[C@H]1C(=O)N1CCC[C@H]1C(=O)N1CCC[C@H]1C(=O)N[C@@H](CCCCN)C(N)=O)[C@@H](C)CC)C(=O)O)C(=O)O
For B2, the “EC50 hGLP-1R (cAMP response, HTRF, HEK-293 cells)” value with human GLP-1 receptor amounted to 2.9 pM. Further, the “EC50 hGlucagon R (cAMP response, HTRF, HEK-293 cells)” value with human glucagon receptor is 2.1 pM. In the data set with human GIP receptor, the “EC50 hGlP R (cAMP response, HTRF, HEK-293 cells)” value was determined as 1.5 pM.

(Values after patent US20200023070A1, “CONJUGATES COMPRISING AN GLP-1/GLUCAGON/GIP TRIPLE RECEPTOR AGONIST, A LINKER AND HYALURONIC ACID” (SANOFI, priority 2018, published 2020).)
